The target in the assay is BG505 Olio6 trimer (HIV-1 (isolate BG505)). As to the kind of experiment: SEC-MALS. For orientation: Size exclusion chromatography separates by hydrodynamic size, large species first.

For the substance BG505 Olio6 trimer (complex), the stoichiometry N stood at 3.

As usually defined, the stoichiometry N is the number of molecules, sites or subunits per partner or assembly.
